In patent US20230090502:

Legend:
[1] = test system: T1, Biosyn#1 (cov19) Dabcyl-TSAVLQSGFRK-EDANS
T1 sequence: TSAVLQSGFRK

[2] = test system: Biosyn#7 (HRV) Dabcyl-LEALFQGP[Asp-(EDANS) SQ [Amide]
[3] = test system: T2, Biosyn#6 (229e) Dabcyl-YGSTLQAGLRK-EDANS
T2 sequence: YGSTLQAGLRK

Human Rhinovirus (HRV) 3C protease
% Enz activity [1]: -1% | Enzymatic activity, Slope; 5 uM substrate, 150 ng/reaction enzyme [1]: -12 RFU/min | enzymatic activity, in words [1]: Complete specificity (no cross reactivity) was observed for the most abundant common cold virus, HRV. | % Enz activity [2]: 100% | Enzymatic activity, Slope; 5 uM substrate, 150 ng/reaction enzyme [2]: 1040 RFU/min | enzymatic activity, in words [2]: The Biosyn #7 substrate was specific for HRV. | % Enz activity: 1% | Enzymatic activity, Slope; 5 uM substrate, 150 ng/reaction enzyme: 87 RFU/min | enzymatic activity, in words: Complete specificity (no cross reactivity) was observed for the most abundant common cold virus, HRV. | % Enz activity [3]: -7% | Enzymatic activity, Slope; 5 uM substrate, 150 ng/reaction enzyme [3]: 44 RFU/min | enzymatic activity, in words [3]: Complete specificity (no cross reactivity) was observed for the most abundant common cold virus, HRV.
